Drawing on patent publication US20100015650, this text covers Signal to Noise ratio with BRB1 Peptide (TR-FRET kinase assay; kinase 0.5 nM), Signal to Noise ratio with BRB1 Peptide (TR-FRET kinase assay; kinase 0.1 nM) and Signal to Noise ratio with BRB1 Peptide (TR-FRET kinase assay; kinase 0.25 nM) for eight substances.

This data set deals with BRB1 tyrosine kinase substrate peptide.
BRB1 tyrosine kinase substrate peptide, sequence (chain, as listed by the source): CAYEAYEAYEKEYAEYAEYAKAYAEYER

BLK, sequence (chain, as listed by the source): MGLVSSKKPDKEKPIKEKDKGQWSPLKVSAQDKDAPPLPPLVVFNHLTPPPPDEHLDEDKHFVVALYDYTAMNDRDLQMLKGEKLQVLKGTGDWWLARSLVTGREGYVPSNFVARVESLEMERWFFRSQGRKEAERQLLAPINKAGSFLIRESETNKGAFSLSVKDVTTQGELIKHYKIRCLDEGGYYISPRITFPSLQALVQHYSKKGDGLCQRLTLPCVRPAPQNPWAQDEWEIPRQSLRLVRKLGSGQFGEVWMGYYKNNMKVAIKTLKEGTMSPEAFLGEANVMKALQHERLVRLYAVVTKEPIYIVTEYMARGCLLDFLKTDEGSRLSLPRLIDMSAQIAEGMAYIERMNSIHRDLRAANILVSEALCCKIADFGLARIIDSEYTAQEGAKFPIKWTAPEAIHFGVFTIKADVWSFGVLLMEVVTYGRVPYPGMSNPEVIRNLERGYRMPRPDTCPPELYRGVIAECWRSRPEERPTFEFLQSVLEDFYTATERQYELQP
TRKC (NTRK3), sequence (chain, as listed by the source): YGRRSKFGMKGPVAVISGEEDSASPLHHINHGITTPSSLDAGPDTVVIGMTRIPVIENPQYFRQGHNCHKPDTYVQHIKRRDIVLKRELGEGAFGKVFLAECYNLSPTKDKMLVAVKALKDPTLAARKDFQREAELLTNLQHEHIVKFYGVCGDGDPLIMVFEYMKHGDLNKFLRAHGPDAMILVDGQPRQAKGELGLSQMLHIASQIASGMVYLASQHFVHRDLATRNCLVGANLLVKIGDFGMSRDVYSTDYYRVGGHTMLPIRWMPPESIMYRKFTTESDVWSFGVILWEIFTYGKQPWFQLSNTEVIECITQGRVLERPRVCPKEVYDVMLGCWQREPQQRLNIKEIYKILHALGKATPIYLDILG
TRKB (NTRK2), sequence (chain, as listed by the source): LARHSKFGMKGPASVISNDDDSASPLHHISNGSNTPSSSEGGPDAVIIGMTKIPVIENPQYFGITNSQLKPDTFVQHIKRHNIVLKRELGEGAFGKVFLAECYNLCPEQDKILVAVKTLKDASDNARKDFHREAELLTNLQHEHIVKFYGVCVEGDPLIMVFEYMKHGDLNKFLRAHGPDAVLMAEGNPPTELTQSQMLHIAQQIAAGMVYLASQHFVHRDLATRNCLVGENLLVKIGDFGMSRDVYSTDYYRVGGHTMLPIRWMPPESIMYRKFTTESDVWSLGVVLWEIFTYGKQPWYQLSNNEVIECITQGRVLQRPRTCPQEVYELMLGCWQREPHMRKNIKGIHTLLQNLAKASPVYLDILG
YES, sequence (chain, as listed by the source): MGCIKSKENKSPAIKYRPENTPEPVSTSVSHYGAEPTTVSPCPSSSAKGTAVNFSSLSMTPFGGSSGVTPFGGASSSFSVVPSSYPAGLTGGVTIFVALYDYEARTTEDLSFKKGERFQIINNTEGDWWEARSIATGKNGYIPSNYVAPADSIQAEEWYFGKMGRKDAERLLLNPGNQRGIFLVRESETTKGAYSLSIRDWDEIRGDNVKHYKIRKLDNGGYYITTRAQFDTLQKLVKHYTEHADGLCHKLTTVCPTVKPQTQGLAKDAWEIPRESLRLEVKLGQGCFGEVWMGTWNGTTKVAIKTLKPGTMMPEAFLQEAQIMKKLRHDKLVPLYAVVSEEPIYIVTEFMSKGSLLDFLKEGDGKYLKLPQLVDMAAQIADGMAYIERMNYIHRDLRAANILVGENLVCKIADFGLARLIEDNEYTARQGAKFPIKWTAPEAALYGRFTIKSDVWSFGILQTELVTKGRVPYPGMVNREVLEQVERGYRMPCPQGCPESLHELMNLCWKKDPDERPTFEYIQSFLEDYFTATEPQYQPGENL
EphA7, sequence (chain, as listed by the source): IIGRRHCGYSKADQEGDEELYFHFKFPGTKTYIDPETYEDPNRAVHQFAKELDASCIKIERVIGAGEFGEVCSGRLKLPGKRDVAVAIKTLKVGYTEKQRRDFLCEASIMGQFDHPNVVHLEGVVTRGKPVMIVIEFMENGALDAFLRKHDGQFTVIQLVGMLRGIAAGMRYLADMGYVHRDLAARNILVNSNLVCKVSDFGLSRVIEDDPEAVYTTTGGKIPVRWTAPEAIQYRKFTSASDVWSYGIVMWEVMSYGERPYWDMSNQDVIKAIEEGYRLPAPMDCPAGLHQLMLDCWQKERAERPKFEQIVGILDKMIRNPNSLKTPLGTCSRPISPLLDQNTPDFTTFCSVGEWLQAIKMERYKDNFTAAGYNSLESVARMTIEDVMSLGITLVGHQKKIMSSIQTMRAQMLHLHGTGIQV
TRKA (NTRK1), sequence (chain, as listed by the source): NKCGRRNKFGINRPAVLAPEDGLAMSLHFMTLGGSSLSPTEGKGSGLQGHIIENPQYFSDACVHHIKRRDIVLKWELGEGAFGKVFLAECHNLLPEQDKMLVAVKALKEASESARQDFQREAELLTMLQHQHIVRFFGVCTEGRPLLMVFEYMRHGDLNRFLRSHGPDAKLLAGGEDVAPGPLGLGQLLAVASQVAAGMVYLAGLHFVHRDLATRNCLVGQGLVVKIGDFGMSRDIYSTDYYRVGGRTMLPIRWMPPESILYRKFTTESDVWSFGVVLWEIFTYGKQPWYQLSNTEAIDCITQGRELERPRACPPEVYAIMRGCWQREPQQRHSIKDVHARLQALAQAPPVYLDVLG

As to TRKA (NTRK1), the Signal to Noise ratio with BRB1 Peptide (TR-FRET kinase assay; kinase 0.5 nM) came to 23.2.

Consider FGR, for which the Signal to Noise ratio with BRB1 Peptide (TR-FRET kinase assay; kinase 0.1 nM) turned out to be 29.3.

As to TRKB (NTRK2), the Signal to Noise ratio with BRB1 Peptide (TR-FRET kinase assay; kinase 0.5 nM) was 28.

YES: the Signal to Noise ratio with BRB1 Peptide (TR-FRET kinase assay; kinase 0.25 nM) is 28.

For the substance LYNa, the Signal to Noise ratio with BRB1 Peptide (TR-FRET kinase assay; kinase 0.5 nM) turned out to be 32.5.

As to TRKC (NTRK3), the Signal to Noise ratio with BRB1 Peptide (TR-FRET kinase assay; kinase 0.5 nM) is 6.4.

As for EphA7, the Signal to Noise ratio with BRB1 Peptide (TR-FRET kinase assay; kinase 0.5 nM) was 17.2.

As for BLK, the Signal to Noise ratio with BRB1 Peptide (TR-FRET kinase assay; kinase 0.5 nM) worked out at 31.
